Paper PMC10235943

Legend:
endogenous IP3R1 = endogenous IP3R1 (UniProt Q14643); test: sucrose density gradient fractionation
[1] = biological target: transiently expressed IP3R1 (wild type) (human) (UniProt Q14643); test: sucrose density gradient fractionation

endogenous IP3R1, Q14643-1 1-2758 (receptor), sequence (Q14643 whole entry): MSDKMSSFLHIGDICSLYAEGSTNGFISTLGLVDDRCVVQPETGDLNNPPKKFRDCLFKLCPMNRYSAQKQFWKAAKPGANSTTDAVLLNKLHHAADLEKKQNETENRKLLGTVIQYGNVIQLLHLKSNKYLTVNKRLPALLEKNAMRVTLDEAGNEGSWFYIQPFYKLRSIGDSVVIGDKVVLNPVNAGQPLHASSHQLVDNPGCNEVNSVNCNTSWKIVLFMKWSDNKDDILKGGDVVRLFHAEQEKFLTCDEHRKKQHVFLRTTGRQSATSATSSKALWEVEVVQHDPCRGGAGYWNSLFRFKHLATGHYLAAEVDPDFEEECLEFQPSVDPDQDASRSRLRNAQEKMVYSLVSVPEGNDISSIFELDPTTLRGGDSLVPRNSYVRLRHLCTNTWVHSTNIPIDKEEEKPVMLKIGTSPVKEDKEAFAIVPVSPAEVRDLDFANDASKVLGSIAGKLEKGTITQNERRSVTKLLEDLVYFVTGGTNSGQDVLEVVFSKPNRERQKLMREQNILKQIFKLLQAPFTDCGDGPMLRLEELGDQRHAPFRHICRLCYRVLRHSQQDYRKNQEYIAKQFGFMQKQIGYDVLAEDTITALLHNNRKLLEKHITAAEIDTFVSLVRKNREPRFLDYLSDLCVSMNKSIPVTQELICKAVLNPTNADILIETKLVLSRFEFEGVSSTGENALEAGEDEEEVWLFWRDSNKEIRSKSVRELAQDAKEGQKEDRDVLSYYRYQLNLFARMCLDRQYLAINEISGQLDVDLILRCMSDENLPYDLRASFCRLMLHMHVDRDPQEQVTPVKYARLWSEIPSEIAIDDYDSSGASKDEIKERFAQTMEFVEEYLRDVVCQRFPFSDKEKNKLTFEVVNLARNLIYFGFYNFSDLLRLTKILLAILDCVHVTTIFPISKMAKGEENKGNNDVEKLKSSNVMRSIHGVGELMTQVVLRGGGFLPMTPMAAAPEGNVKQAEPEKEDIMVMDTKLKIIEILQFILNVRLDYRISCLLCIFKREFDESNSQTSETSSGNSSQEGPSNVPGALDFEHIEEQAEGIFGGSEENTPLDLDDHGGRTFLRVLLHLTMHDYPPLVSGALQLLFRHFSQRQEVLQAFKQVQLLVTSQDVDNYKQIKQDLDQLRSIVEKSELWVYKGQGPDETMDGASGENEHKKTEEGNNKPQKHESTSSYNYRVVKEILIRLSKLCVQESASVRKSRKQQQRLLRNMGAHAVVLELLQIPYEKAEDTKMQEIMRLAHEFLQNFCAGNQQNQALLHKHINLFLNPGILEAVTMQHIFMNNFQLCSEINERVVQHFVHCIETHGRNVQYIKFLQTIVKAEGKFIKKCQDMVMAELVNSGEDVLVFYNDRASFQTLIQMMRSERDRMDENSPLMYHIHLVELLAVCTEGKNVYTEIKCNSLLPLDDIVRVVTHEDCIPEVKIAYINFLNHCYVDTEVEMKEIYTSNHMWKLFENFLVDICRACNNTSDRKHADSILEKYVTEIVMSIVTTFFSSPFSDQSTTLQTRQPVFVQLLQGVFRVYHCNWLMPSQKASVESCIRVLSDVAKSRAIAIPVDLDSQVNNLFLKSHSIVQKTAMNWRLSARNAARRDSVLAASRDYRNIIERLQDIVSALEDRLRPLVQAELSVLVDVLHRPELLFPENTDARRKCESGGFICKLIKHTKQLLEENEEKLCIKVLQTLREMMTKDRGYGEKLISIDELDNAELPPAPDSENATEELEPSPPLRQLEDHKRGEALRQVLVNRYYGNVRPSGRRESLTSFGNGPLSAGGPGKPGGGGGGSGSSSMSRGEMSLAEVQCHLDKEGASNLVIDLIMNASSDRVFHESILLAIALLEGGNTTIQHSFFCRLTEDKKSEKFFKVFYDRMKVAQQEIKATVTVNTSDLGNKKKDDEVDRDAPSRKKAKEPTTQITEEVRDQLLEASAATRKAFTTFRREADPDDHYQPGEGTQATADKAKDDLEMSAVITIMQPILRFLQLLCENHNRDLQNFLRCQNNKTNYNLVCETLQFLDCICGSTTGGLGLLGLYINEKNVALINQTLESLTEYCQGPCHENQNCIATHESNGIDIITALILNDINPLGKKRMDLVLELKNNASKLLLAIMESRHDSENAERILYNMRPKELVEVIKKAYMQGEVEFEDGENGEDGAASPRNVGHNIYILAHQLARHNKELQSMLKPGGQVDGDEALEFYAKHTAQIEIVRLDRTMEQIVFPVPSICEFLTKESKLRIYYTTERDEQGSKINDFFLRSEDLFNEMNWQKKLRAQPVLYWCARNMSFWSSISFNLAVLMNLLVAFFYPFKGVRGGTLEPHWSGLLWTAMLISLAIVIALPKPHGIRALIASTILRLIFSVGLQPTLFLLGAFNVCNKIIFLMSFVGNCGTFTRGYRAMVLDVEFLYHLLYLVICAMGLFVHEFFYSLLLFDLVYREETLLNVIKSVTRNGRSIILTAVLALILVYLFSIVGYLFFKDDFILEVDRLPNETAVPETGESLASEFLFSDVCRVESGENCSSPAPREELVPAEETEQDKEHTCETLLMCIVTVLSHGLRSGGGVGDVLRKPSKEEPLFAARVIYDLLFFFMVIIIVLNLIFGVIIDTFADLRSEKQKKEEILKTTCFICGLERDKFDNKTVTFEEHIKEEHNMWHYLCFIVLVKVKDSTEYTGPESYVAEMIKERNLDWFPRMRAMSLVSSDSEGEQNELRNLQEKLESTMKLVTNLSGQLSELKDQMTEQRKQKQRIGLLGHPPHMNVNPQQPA

Substance	stoichiometry N (endogenous IP3R1)	stoichiometry N [1]
endogenous IP3R1, Q14643-1 1-2758 (receptor)	4	
transiently expressed IP3R1 (wild type), Q14643-1 1-2758 (receptor)		4
